Data taken from patent US20020137891A1, “Protein scaffold and its use to multimerise monomeric polypeptides” (priority 1999, published 2002).

Columns and labels:
[1] = system: mutant Huntingdon exon 1-expressing PC12 and SH-SY5Y cells; conditions: overexpression in PC12 and SH-SY5Y cells; D. Rubinsztein et al.; cited from earlier work
[2] = biological target: T1, pig heart mitochondrial malate dehydrogenase (mtMDH) (Sus scrofa, UniProt P00346); experiment: In vitro refolding and aggregation protection of heat- and dithiothreitol-denatured mtMDH; assay type: biochemical; conditions: reactivation at 25° C., chaperone alone, FIG. 7b
T1 construct: pig heart mitochondrial malate dehydrogenase (mtMDH; Boehringer-Mannheim); purchased Boehringer-Mannheim; host or cells: pig heart
T1 sequence (P00346 25-338): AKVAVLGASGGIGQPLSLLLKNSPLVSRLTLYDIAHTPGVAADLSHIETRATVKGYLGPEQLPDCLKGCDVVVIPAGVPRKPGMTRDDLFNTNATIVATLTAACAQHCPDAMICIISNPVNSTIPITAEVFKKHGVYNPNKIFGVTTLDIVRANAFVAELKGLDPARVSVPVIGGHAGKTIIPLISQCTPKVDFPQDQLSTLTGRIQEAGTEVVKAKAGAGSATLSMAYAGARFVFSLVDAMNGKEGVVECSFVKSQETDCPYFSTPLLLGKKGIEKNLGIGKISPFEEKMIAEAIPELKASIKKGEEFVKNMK
Procedure: In vitro refolding experiments. Refolding assays of pig heart mitochondrial malate dehydrogenase (mtMDH; Boehringer-Mannheim) and aggregation protection were carried out essentially as described (Peres Ben-Zvi, A. P., Chatellier, J., Fersht, A. R. & Goloubinoff, P. (1998) Proc. Natl. Acad. Sci. U.S.A. 95, 15275-15280). The concentrations of MC7 used were between 8-16 μM (reporter to protomer).

GroES = GroES (Escherichia coli, UniProt P0A6F9); conditions: ELISA; proteins coated at 10 μg/mL, GroES at 10 μg/mL, 25° C.
Procedure: GroES binding and competition assays by ELISA (enzyme-linked immunosorbant assay). Proteins were coated onto plastic microtitre plates (Maxisorb, Nunc) overnight at 4° C. at a concentration of 10 μg/mL in carbonate buffer (50 mM NaHCO3, pH 9.6). Plates were blocked for 1 hour at 25° C. with 2% Marvel in PBS (phosphate buffered saline: 25 mM NaH2PO4, 125 mM NaCl, pH 7.0). GroES, at 10 μg/mL in 100 μL of 10 mM Tris-HCl, 200 mM KCl, pH 7.4, were bound at 25° C. for 1 hour. Bound GroES were detected with rabbit anti-GroES antibodies (Sigma) followed by anti-rabbit immunoglobulins horseradish peroxidase conjugated antibodies (Sigma).

bacteriophage λ (b2cI) = experiment: Growth (plaque formation) of bacteriophage λ at 30° C. in transformed wild-type and groEL mutant strains; assay type: cell-based, E. coli
Text: Bacterial and bacteriophage strains. The E. coli strains used in this study were: C41(DE3), a mutant of BL21(DE3) capable of expressing toxic genes (Miroux, B. & Walker, J. E. (1996) J. Mol. Biol. 260, 289-298); SV2 (B178groEL44), SV3 (B178groEL59) and SV6 (B178groEL673): isogenic strains carrying temperature-sensitive alleles of groEL; SV1(=B178) (Georgopoulos, C., Hendrix, R. W., Casjens, S. R. & Kaiser, A. D. (1973) J. Mol. Biol. 76, 45-60), AI90 (ΔgroEL::kan^R) [pBAD-EL] (Ivic, A., Olden, D., Wallington, E. J. & Lund, P. A. (1997) Gene 194, 1-8), and TG1 (Gibson, T. J. (1984) Ph.D. thesis, University of Cambridge, U.K). Bacteriophage λb2cI (Zeilstra-Ryalls, J., Fayet, O., Baird, L. & Georgopoulos, C. (1993) J. Bacteriol. 175, 1134-1143) was used according to standard methods (Arber, W., Enquist, L., Hohn, B., Murray, N. E. & Murray, K. (1983) in Lambda II., ed. R. W. Hendrix, J. W. r., F. W. Stahl and R. A. Weisberg (Cold Spring Harbor Laboratory, Cold Spring Harbor, N.Y.), pp. 433-466); plaque formation was assayed at 30° C. T4D0, a derivative of bacteriophage T4 (Zeilstra-Ryalls, J., Fayet, O., Baird, L. & Georgopoulos, C. (1993) J. Bacteriol. 175, 1134-1143), was used according to standard methods (Karam, J. D. (1994) Molecular biology of bacteriophage T4. (American Society for Microbiology, Washington, D.C.)); plaque formation was assayed at 37° C.
Bacteriophage λ requires the chaperonins GroES and GroEL for protein folding during morphogenesis; bacteriophage T4 requires GroEL and Gp31, the latter being encoded by the bacteriophage genome (Zeilstra-Ryalls, J., Fayet, O. & Georgopoulos, C. (1991) Annu. Rev. Microbiol. 45, 301-325). Nine groE alleles which fail to support λ growth have been sequenced (Zeilstra-Ryalls, J., Fayet, O., Baird, L. & Georgopoulos, C. (1993) J. Bacteriol. 175, 1134-1143). We examined the ability of MC7, over-expressed from the constitutive tet promoter on a high-copy number vector (see FIG. 2), to complement three mutant groEL alleles for plaque formation by λ (b2cI) at 30° C. (Table 3) and T4 at 37° C. (Table 4).

Chain of GroES (P0A6F9 whole entry): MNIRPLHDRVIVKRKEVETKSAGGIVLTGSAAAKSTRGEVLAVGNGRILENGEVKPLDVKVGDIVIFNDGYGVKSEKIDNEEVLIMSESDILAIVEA

B1: GroEL(191-345): GroEL(191-345) minichaperone monomer (protein, UniProt P0A6F5 191-345, looked up, fragment)
chain: EGMQFDRGYLSPYFINKPETGAVELESPFILLADKKISNIREMLPVLEAVAKAGKPLLIIAEDVEGEALATLVVNTMRGIVKVAAVKAPGFGDRRKAMLQDIATLTGGTVISEEIGMELEKATLEDLGQAKRVVINKDTTTIIDGVGEEAAIQGR
modifications: apical domain
notes: GroEL(191-345) minichaperone monomer
- cell death [1]: reduced cell death
- proportion of cells with inclusions [1]: reduced slightly but significantly

B2: GroEL(191-376): monomeric minichaperone, apical domain of GroEL residues 191 to 376, sht removed by thrombin cleavage (protein, UniProt P0A6F5 191-376, looked up, fragment)
chain: EGMQFDRGYLSPYFINKPETGAVELESPFILLADKKISNIREMLPVLEAVAKAGKPLLIIAEDVEGEALATLVVNTMRGIVKVAAVKAPGFGDRRKAMLQDIATLTGGTVISEEIGMELEKATLEDLGQAKRVVINKDTTTIIDGVGEEAAIQGRVAQIRQQIEEATSDYDREKLQERVAKLAGGV
modifications: apical domain
notes: monomeric minichaperone, apical domain of GroEL residues 191 to 376, sht removed by thrombin cleavage
- rate of refolding of denatured mtMDH [2]: ineffective in enhancing the refolding rate
- Binding to GroES (GroES): did not detectably bind
- Effect of over-expression on plaque formation by bacteriophage λ in SV1 (groE^+) (in words) (bacteriophage λ (b2cI)): had no effect on plaque counts
